Tested on: Escherichia coli TOP10
Experiment: shrunken log2 fold change of peptide-encoding DNA abundance (4.5 h post-induction vs induction); higher = less antimicrobial activity (less host growth inhibition)
Details: time post-induction: 4.5 h; library: site-saturation at positions 5, 18, 19, 20
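Note: peptides expressed intracellularly from a pBAD plasmid library in pooled LB shake-flask culture, induced with 0.3% L-arabinose, DNA abundance read by NGS, three biological replicates, DESeq2 with apeglm shrinkage.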

Sequence: RRIRNRPPRLPRPRPRPARAPRP
- shrunken log2 fold change: 0.44

Sequence: RRIRERPPRLPRPRPRPHDDPRP
- shrunken log2 fold change: -0.147

Sequence: RRIRMRPPRLPRPRPRPRYGPRP
- shrunken log2 fold change: 0.0305

Sequence: RRIRYRPPRLPRPRPRPQNEPRP
- shrunken log2 fold change: -0.483

Sequence: RRIRTRPPRLPRPRPRPCAHPRP
- shrunken log2 fold change: -0.209

Sequence: RRIRHRPPRLPRPRPRPMWMPRP
- shrunken log2 fold change: -0.000946

Sequence: RRIRARPPRLPRPRPRPVTTPRP
- shrunken log2 fold change: 0.342

Sequence: RRIRFRPPRLPRPRPRPVHIPRP
- shrunken log2 fold change: 0.0681

Sequence: RRIRHRPPRLPRPRPRPNHYPRP
- shrunken log2 fold change: -0.939

Sequence: RRIRCRPPRLPRPRPRPIIPPRP
- shrunken log2 fold change: -0.645

Sequence: RRIRFRPPRLPRPRPRPCYSPRP
- shrunken log2 fold change: 0.019

Sequence: RRIRPRPPRLPRPRPRPYFDPRP
- shrunken log2 fold change: -0.561

Sequence: RRIRERPPRLPRPRPRPIYTPRP
- shrunken log2 fold change: 0.036

Sequence: RRIRYRPPRLPRPRPRPEHWPRP
- shrunken log2 fold change: -0.0026

Sequence: RRIRIRPPRLPRPRPRPQATPRP
- shrunken log2 fold change: -0.24

Sequence: RRIRCRPPRLPRPRPRPFDQPRP
- shrunken log2 fold change: -0.136

Sequence: RRIRERPPRLPRPRPRPSEIPRP
- shrunken log2 fold change: -0.16

Sequence: RRIRKRPPRLPRPRPRPAKQPRP
- shrunken log2 fold change: 0.0123

Sequence: RRIRFRPPRLPRPRPRPEVLPRP
- shrunken log2 fold change: -0.0031

Sequence: RRIRGRPPRLPRPRPRPWFMPRP
- shrunken log2 fold change: -0.384

Sequence: RRIRSRPPRLPRPRPRPWHYPRP
- shrunken log2 fold change: -0.162

Sequence: RRIRCRPPRLPRPRPRPGINPRP
- shrunken log2 fold change: -0.31

Sequence: RRIRERPPRLPRPRPRPMIWPRP
- shrunken log2 fold change: -0.21

Sequence: RRIRLRPPRLPRPRPRPGFCPRP
- shrunken log2 fold change: 0.272

Sequence: RRIRFRPPRLPRPRPRPYDWPRP
- shrunken log2 fold change: -0.147

Sequence: RRIRPRPPRLPRPRPRPGILPRP
- shrunken log2 fold change: -0.557

Sequence: RRIRVRPPRLPRPRPRPLMMPRP
- shrunken log2 fold change: -0.331

Sequence: RRIRLRPPRLPRPRPRPIGMPRP
- shrunken log2 fold change: 0.0212

Sequence: RRIRHRPPRLPRPRPRPTFEPRP
- shrunken log2 fold change: 0.0452

Sequence: RRIRWRPPRLPRPRPRPNYGPRP
- shrunken log2 fold change: -0.281

Sequence: RRIRERPPRLPRPRPRPSEEPRP
- shrunken log2 fold change: -0.0988

Sequence: RRIRKRPPRLPRPRPRPITIPRP
- shrunken log2 fold change: -0.165

Sequence: RRIRNRPPRLPRPRPRPWVYPRP
- shrunken log2 fold change: -0.0702

Sequence: RRIRQRPPRLPRPRPRPEPMPRP
- shrunken log2 fold change: 0.0452

Sequence: RRIRHRPPRLPRPRPRPNTYPRP
- shrunken log2 fold change: -0.742

Sequence: RRIRWRPPRLPRPRPRPWVGPRP
- shrunken log2 fold change: 0.207

Sequence: RRIRCRPPRLPRPRPRPNWNPRP
- shrunken log2 fold change: -0.514

Sequence: RRIRYRPPRLPRPRPRPECDPRP
- shrunken log2 fold change: -0.235

Sequence: RRIRRRPPRLPRPRPRPYCFPRP
- shrunken log2 fold change: -0.37

Sequence: RRIRTRPPRLPRPRPRPTYPPRP
- shrunken log2 fold change: 0.0247

Sequence: RRIRYRPPRLPRPRPRPGISPRP
- shrunken log2 fold change: -0.0863

Sequence: RRIRQRPPRLPRPRPRPTNTPRP
- shrunken log2 fold change: -0.216

Sequence: RRIRTRPPRLPRPRPRPYLVPRP
- shrunken log2 fold change: -0.489

Sequence: RRIRARPPRLPRPRPRPKLVPRP
- shrunken log2 fold change: 0.106

Sequence: RRIRARPPRLPRPRPRPKERPRP
- shrunken log2 fold change: 0.415

Sequence: RRIRIRPPRLPRPRPRPFIKPRP
- shrunken log2 fold change: -0.913

Sequence: RRIRYRPPRLPRPRPRPNLPPRP
- shrunken log2 fold change: -0.479

Sequence: RRIRQRPPRLPRPRPRPGSWPRP
- shrunken log2 fold change: 0.298

Sequence: RRIRNRPPRLPRPRPRPHQTPRP
- shrunken log2 fold change: -0.0525

Sequence: RRIRRRPPRLPRPRPRPCTHPRP
- shrunken log2 fold change: 0.176

Sequence: RRIRDRPPRLPRPRPRPTCAPRP
- shrunken log2 fold change: 0.927

Sequence: RRIRVRPPRLPRPRPRPEVWPRP
- shrunken log2 fold change: 0.405

Sequence: RRIRWRPPRLPRPRPRPKVWPRP
- shrunken log2 fold change: 0.68

Sequence: RRIRGRPPRLPRPRPRPCEAPRP
- shrunken log2 fold change: 0.838

Sequence: RRIRQRPPRLPRPRPRPDYAPRP
- shrunken log2 fold change: -0.00674

Sequence: RRIRYRPPRLPRPRPRPKHDPRP
- shrunken log2 fold change: -0.648

Sequence: RRIRPRPPRLPRPRPRPTIEPRP
- shrunken log2 fold change: -0.0748

Sequence: RRIRPRPPRLPRPRPRPQPNPRP
- shrunken log2 fold change: 0.185

Sequence: RRIRLRPPRLPRPRPRPWAVPRP
- shrunken log2 fold change: 0.0558

Sequence: RRIRDRPPRLPRPRPRPHQVPRP
- shrunken log2 fold change: -0.00776

Sequence: RRIRNRPPRLPRPRPRPASRPRP
- shrunken log2 fold change: 0.12

Sequence: RRIRRRPPRLPRPRPRPTVWPRP
- shrunken log2 fold change: 0.359

Sequence: RRIRSRPPRLPRPRPRPNSTPRP
- shrunken log2 fold change: -0.573

Sequence: RRIRFRPPRLPRPRPRPKTFPRP
- shrunken log2 fold change: -0.18

Sequence: RRIRLRPPRLPRPRPRPGKCPRP
- shrunken log2 fold change: -0.073

Sequence: RRIRERPPRLPRPRPRPASFPRP
- shrunken log2 fold change: -0.285

Sequence: RRIRLRPPRLPRPRPRPITDPRP
- shrunken log2 fold change: -0.465

Sequence: RRIRNRPPRLPRPRPRPWCGPRP
- shrunken log2 fold change: -0.263

Sequence: RRIRFRPPRLPRPRPRPQTGPRP
- shrunken log2 fold change: -0.152

Sequence: RRIRPRPPRLPRPRPRPVEHPRP
- shrunken log2 fold change: 0.00343

Sequence: RRIRGRPPRLPRPRPRPQTHPRP
- shrunken log2 fold change: 1.41

Sequence: RRIRNRPPRLPRPRPRPSPIPRP
- shrunken log2 fold change: -0.561

Sequence: RRIRYRPPRLPRPRPRPLWPPRP
- shrunken log2 fold change: -0.135

Sequence: RRIRMRPPRLPRPRPRPLLGPRP
- shrunken log2 fold change: 0.495

Sequence: RRIRIRPPRLPRPRPRPLQMPRP
- shrunken log2 fold change: -0.264

Sequence: RRIRCRPPRLPRPRPRPQIYPRP
- shrunken log2 fold change: -0.579

Sequence: RRIRTRPPRLPRPRPRPCWYPRP
- shrunken log2 fold change: 4

Sequence: RRIRIRPPRLPRPRPRPQQIPRP
- shrunken log2 fold change: -0.552

Sequence: RRIRMRPPRLPRPRPRPLSPPRP
- shrunken log2 fold change: 0.345

Sequence: RRIRARPPRLPRPRPRPEVHPRP
- shrunken log2 fold change: 3.57

Sequence: RRIRPRPPRLPRPRPRPANWPRP
- shrunken log2 fold change: 0.22

Sequence: RRIRARPPRLPRPRPRPWTCPRP
- shrunken log2 fold change: 0.0519

Sequence: RRIRWRPPRLPRPRPRPTVSPRP
- shrunken log2 fold change: -0.156

Sequence: RRIRCRPPRLPRPRPRPKKFPRP
- shrunken log2 fold change: -0.00227

Sequence: RRIRSRPPRLPRPRPRPTQLPRP
- shrunken log2 fold change: 0.249

Sequence: RRIRWRPPRLPRPRPRPIPGPRP
- shrunken log2 fold change: 0.0313

Sequence: RRIRLRPPRLPRPRPRPTQAPRP
- shrunken log2 fold change: 0.507

Sequence: RRIRFRPPRLPRPRPRPLDIPRP
- shrunken log2 fold change: -0.267

Sequence: RRIRHRPPRLPRPRPRPDTHPRP
- shrunken log2 fold change: -1.19

Sequence: RRIRRRPPRLPRPRPRPFQNPRP
- shrunken log2 fold change: 0.0537

Sequence: RRIRARPPRLPRPRPRPNCYPRP
- shrunken log2 fold change: -0.211

Sequence: RRIRQRPPRLPRPRPRPRGAPRP
- shrunken log2 fold change: 0.399

Sequence: RRIRRRPPRLPRPRPRPGHWPRP
- shrunken log2 fold change: 0.0797

Sequence: RRIRTRPPRLPRPRPRPEFQPRP
- shrunken log2 fold change: -0.161

Sequence: RRIRNRPPRLPRPRPRPNIVPRP
- shrunken log2 fold change: -0.115

Sequence: RRIRGRPPRLPRPRPRPHMPPRP
- shrunken log2 fold change: -0.0535

Sequence: RRIRDRPPRLPRPRPRPFDYPRP
- shrunken log2 fold change: -0.224

Sequence: RRIRIRPPRLPRPRPRPPKDPRP
- shrunken log2 fold change: -0.674

Sequence: RRIRKRPPRLPRPRPRPCMQPRP
- shrunken log2 fold change: 0.121

Sequence: RRIRMRPPRLPRPRPRPNWTPRP
- shrunken log2 fold change: 0.132

Sequence: RRIRERPPRLPRPRPRPEGRPRP
- shrunken log2 fold change: 0.583

Sequence: RRIRSRPPRLPRPRPRPGTLPRP
- shrunken log2 fold change: -0.571

Sequence: RRIRARPPRLPRPRPRPTVNPRP
- shrunken log2 fold change: -0.0152

Sequence: RRIRSRPPRLPRPRPRPSHMPRP
- shrunken log2 fold change: -0.993

Sequence: RRIRDRPPRLPRPRPRPEGVPRP
- shrunken log2 fold change: 0.166

Sequence: RRIRWRPPRLPRPRPRPKVHPRP
- shrunken log2 fold change: -0.136

Sequence: RRIRPRPPRLPRPRPRPPTPPRP
- shrunken log2 fold change: 0.417

Sequence: RRIRCRPPRLPRPRPRPKTTPRP
- shrunken log2 fold change: -0.000868

Sequence: RRIRSRPPRLPRPRPRPWREPRP
- shrunken log2 fold change: 0.0924

Source: the supplement of paper PMC9112550, “Optimization of the antimicrobial peptide Bac7 by deep mutational scanning” (BMC Biology, 2022)
